Laboratory results: article PMC10104474 (Science Advances, 2023)

Assays:
crystal structure = target: the molecule itself; experiment: crystal structure
Ucc1-Skp1(FL) complex = Ucc1-Skp1(FL) complex (S. cerevisiae, UniProt Q05947 1-369; P52286 1-194); experiment: pull-down
Chain of Ucc1-Skp1(FL) complex (Q05947 whole entry, chain 1 of 2): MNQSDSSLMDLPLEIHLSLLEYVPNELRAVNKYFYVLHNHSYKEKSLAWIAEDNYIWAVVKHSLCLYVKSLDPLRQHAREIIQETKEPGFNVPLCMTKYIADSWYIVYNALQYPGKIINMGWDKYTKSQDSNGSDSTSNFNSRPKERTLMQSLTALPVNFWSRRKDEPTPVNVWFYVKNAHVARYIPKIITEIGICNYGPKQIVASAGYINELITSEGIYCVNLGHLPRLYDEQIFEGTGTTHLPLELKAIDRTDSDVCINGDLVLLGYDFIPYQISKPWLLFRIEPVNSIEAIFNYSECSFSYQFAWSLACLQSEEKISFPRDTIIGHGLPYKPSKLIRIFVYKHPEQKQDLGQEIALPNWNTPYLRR
Chain of Ucc1-Skp1(FL) complex (P52286 whole entry, chain 2 of 2): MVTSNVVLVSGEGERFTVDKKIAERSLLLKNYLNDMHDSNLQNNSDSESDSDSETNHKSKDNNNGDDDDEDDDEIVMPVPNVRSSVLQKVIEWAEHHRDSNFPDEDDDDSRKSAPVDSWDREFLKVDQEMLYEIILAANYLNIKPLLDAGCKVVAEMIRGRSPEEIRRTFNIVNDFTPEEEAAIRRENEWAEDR

Binder	stoichiometry N (crystal structure)	binding result (Ucc1-Skp1(FL) complex)
Cit2 (full-length, HisSUMO1-tag cleaved) (enzyme, S. cerevisiae, UniProt P08679 1-460, looked up) MTVPYLNSNRNVASYLQSNSSQEKTLKERFSEIYPIHAQDVRQFVKEHGKTKISDVLLEQVYGGMRGIPGSVWEGSVLDPEDGIRFRGRTIADIQKDLPKAKGSSQPLPEALFWLLLTGEVPTQAQVENLSADLMSRSELPSHVVQLLDNLPKDLHPMAQFSIAVTALESESKFAKAYAQGISKQDYWSYTFEDSLDLLGKLPVIAAKIYRNVFKDGKMGEVDPNADYAKNLVNLIGSKDEDFVDLMRLYLTIHSDHEGGNVSAHTSHLVGSALSSPYLSLASGLNGLAGPLHGRANQEVLEWLFALKEEVNDDYSKDTIEKYLWDTLNSGRVIPGYGHAVLRKTDPRYMAQRKFAMDHFPDYELFKLVSSIYEVAPGVLTEHGKTKNPWPNVDAHSGVLLQYYGLKESSFYTVLFGVSRAFGILAQLITDRAIGASIERPKSYSTEKYKELVKNIESKL	2	
MBP-Cit1(Δ1–37) (enzyme, S. cerevisiae, UniProt P00890 38-479, looked up) SSASEQTLKERFAEIIPAKAEEIKKFKKEHGKTVIGEVLLEQAYGGMRGIKGLVWEGSVLDPEEGIRFRGRTIPEIQRELPKAEGSTEPLPEALFWLLLTGEIPTDAQVKALSADLAARSEIPEHVIQLLDSLPKDLHPMAQFSIAVTALESESKFAKAYAQGVSKKEYWSYTFEDSLDLLGKLPVIASKIYRNVFKDGKITSTDPNADYGKNLAQLLGYENKDFIDLMRLYLTIHSDHEGGNVSAHTTHLVGSALSSPYLSLAAGLNGLAGPLHGRANQEVLEWLFKLREEVKGDYSKETIEKYLWDTLNAGRVVPGYGHAVLRKTDPRYTAQREFALKHFPDYELFKLVSTIYEVAPGVLTKHGKTKNPWPNVDSHSGVLLQYYGLTEASFYTVLFGVARAIGVLPQLIIDRAVGAPIERPKSFSTEKYKELVKKIESKN		binds
